B1: CD20-4GL-SIRPα (bispecific antibody)
heavy: not shown
light: QIVLSQSPAILSASPGEKVTMTCRASSSVSYIHWFQQKPGSSPKPWIYATSNLASGVPVRFSGSGSGTSYSLTISRVEAEDAATYYCQQWTSNPPTFGGGTKLEIKRTVAAPSVFIFPPSDEQLKSGTASVVCLLNNFYPREAKVQWKVDNALQSGNSQESVTEQDSKDSTYSLSSTLTLSKADYEKHKVYACEVTHQGLSSPVTKSFNRGEC
B2: SIRPα-CD20 (bispecific antibody)
heavy: not shown
light: B1 light
B3: CD20-2GL-SIRPα (bispecific antibody)
heavy: not shown
light: B1 light

What follows are binders tested against CD47-His (UniProt Q08722 19-139) (assay: SPR (Biacore)).
CD47-His, sequence (Q08722 19-139): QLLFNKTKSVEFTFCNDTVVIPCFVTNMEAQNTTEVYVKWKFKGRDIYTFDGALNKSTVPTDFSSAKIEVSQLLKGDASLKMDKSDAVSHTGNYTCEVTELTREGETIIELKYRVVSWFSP

| Kd [nM] | Binder |
| --- | --- |
| 15.9 | B1 |
| 6.39 | B2 |
| 21.4 | B3 |
